Source: paper PMC4565748

Assays:
[1] = target: complement C3b, site-specifically biotinylated (human) (UniProt P01024); assay: SPR
[2] = target: complement C3b, site-specifically biotinylated (human) (UniProt P01024); assay: SPR; remark: listed apart in the source
[3] = target: complement C3b, site-specifically biotinylated (human) (UniProt P01024); assay: AlphaScreen or HTRF

complement C3b, site-specifically biotinylated (human), sequence (P01024 23-667, chain 1 of 2): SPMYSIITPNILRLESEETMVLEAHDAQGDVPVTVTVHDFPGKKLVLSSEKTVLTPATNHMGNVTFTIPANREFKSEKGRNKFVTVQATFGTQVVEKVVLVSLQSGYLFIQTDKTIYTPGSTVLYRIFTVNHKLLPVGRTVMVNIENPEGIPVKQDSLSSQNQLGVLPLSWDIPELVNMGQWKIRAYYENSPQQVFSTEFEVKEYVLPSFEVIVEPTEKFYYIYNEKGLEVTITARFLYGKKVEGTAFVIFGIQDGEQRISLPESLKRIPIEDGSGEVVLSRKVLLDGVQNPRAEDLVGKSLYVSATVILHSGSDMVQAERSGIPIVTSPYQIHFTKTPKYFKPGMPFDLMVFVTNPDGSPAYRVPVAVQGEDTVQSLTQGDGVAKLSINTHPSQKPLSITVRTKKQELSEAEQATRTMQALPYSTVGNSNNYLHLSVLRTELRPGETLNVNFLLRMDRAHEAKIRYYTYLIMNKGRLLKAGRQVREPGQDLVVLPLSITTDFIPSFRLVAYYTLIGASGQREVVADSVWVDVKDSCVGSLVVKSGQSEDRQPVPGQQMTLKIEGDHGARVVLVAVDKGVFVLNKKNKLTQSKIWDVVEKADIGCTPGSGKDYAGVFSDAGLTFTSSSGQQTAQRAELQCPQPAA
complement C3b, site-specifically biotinylated (human), sequence (P01024 749-1663, chain 2 of 2): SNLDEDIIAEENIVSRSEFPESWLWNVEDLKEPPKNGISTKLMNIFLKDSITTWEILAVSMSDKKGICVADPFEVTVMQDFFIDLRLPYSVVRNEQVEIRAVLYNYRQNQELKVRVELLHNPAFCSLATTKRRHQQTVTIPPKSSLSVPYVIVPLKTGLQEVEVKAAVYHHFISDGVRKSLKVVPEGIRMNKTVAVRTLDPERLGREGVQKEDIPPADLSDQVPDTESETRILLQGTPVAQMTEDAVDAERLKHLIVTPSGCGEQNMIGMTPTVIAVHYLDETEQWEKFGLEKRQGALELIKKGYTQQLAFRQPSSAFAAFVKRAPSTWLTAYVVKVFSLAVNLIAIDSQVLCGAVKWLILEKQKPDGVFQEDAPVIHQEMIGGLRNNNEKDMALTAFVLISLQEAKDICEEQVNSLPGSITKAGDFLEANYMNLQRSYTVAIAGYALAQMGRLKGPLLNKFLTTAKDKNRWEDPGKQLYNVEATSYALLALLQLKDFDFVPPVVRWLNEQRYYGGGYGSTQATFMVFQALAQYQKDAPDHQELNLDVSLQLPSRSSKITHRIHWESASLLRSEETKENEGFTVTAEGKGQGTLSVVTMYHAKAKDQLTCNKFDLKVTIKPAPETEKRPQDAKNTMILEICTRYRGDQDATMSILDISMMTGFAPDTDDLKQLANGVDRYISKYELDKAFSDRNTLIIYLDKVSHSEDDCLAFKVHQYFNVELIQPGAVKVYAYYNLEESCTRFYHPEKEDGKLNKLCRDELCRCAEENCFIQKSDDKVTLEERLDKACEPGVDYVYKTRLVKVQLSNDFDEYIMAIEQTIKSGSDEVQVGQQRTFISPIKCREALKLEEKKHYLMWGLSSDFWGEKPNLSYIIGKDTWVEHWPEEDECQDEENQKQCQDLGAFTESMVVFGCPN

SCIN-B.R44A (natural protein) was tested, and the Kd [1] was 2500 nM, the Kd [2] was 2600 nM and the koff [2] was 0.35 s⁻¹. For the same substance, the kon [2] was 140000 M⁻¹ s⁻¹.

Work on SCIN-B.R44A.Y51A (natural protein) yielded a Kd [3] of 3500 nM, a Kd [1] of 2500 nM and a Kd [2] of 5100 nM. The koff [2] was 0.51 s⁻¹ and the kon [2] was 110000 M⁻¹ s⁻¹.

SCIN-B.Y51A (natural protein) was tested, and the Kd [3] was 900 nM, the Kd [1] was 1000 nM and the Kd [2] was 810 nM.

In the case of “staphylococcal complement inhibitor SCIN-B, full-length wild type (natural protein)”, the Kd [1] is reported as 390 nM, the Kd [2] is reported as 202 nM and the kon [2] is reported as 520000 M⁻¹ s⁻¹.
